The test deals with TNF receptor-associated factor 2 (TRAF2) (human (endogenous in HEK293)) (UniProt Q12933).

The record followed here is PMC6635525.

Chain of UniProt Q12933 (Q12933 whole entry): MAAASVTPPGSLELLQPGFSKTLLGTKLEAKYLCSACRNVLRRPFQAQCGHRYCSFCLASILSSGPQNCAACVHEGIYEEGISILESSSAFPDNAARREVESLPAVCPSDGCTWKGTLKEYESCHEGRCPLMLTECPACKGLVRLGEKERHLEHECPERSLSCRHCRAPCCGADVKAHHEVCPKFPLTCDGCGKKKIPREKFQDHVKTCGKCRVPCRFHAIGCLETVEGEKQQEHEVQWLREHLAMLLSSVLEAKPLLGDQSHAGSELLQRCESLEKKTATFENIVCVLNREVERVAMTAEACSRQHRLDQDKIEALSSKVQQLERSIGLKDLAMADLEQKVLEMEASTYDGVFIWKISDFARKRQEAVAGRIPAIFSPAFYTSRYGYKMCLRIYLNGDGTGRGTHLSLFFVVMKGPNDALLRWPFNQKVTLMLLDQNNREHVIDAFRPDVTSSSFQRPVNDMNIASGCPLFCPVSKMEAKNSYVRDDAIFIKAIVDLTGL

As to “GRA15II-51-550 with the deletion AAEE160-163, fused to GFP (from UniProt A0A125YGQ9 51-550) (domain or fragment)”, the NF-κB luciferase reporter activity in transiently transfected HEK293 reporter cells, decrease compared to full-length GRA15II-51–550 was determined as 60%.
For “GRA15II-51-550 with the deletion SQQE430-433, fused to GFP (from UniProt A0A125YGQ9 51-550) (domain or fragment)”, the NF-κB luciferase reporter activity in transiently transfected HEK293 reporter cells, decrease compared to full-length GRA15II-51–550 is 60%.
As to “GRA15II-51-550 with the deletions AAEE160-163/SQQE430-433, fused to GFP (from UniProt A0A125YGQ9 51-550) (domain or fragment)”, the NF-κB luciferase reporter activity in transiently transfected HEK293 reporter cells, decrease compared to full-length GRA15II-51–550 was 75%.
